This data set has as its target rhSTIP1 (stress-induced phosphoprotein 1) (Homo sapiens, UniProt P31948 1-543). Description: aptamer blot on nitrocellulose, chemiluminescence.

B1: TOV6 (structured_DNA)
DNA: ATCCAGAGTGACGCAGCACGGCACTCACTCTTTGTTAAGTGGTCTGCTTCTTAACCTTCATCGACACGGTGGCTTA
In the case of B1, the binding result was “binds”.
